Test [1] concerns the target T1, human FcRIIB/C protein (MednaBio, E1034) (human, UniProt P31994 43-217, limits assumed).
T1 construct: Bought as FcRIIB/C; also called FcγRIIB; CD32B
T1 sequence (looked up): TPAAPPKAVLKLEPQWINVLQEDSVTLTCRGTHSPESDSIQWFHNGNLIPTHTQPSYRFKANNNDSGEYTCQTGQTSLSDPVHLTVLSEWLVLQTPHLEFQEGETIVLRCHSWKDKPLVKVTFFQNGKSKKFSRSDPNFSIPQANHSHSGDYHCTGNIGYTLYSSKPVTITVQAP
Kind of test: BLI. An outline of the steps:
(§1)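 Binding was measured by biolayer interferometry on an Octet Red96 System, with commercial human Fc receptor proteins loaded at 20 μg/mL onto anti-penta-HIS biosensors. Sensors were dipped into an 8-point 1:3 dilution series of test IgG starting at 300 nM in PBS with 0.1% BSA and 0.02% Tween-20. Fcγ receptor assays ran at pH 7.2 and FcRn assays at pH 6. Kd, kon and koff came from global fitting to a 1:1 binding model.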

Test [2] has as its target T2, human FcRIIIB protein (MednaBio, E1037) (human, UniProt O75015 17-200).
T2 construct: Bought; also called FcγRIIIB; FcgRIIIB
Description: BLI. An outline of the steps: as §1

The target of test [3] is T3, human FcRI protein (MednaBio, E1031) (human, UniProt P12314 16-288, limits assumed).
T3 construct: Bought; loaded on anti-penta-HIS biosensors; also called FcγRI
T3 sequence (P12314 16-288 limits assumed): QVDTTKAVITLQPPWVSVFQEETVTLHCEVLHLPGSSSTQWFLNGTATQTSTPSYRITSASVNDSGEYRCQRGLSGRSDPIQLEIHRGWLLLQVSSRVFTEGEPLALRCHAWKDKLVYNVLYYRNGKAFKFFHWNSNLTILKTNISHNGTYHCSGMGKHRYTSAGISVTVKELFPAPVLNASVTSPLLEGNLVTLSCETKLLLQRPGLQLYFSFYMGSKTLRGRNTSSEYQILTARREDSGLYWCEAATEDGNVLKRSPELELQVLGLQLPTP
Kind of test: BLI. Put shortly:
as §1

The target of test [4] is T4, human FcRIIIA-F158 protein (MednaBio, E1036) (human, UniProt P08637 17-208).
T4 construct: Bought; also called FcγRIIIA(F)
T4 sequence (P08637 17-208 limits assumed): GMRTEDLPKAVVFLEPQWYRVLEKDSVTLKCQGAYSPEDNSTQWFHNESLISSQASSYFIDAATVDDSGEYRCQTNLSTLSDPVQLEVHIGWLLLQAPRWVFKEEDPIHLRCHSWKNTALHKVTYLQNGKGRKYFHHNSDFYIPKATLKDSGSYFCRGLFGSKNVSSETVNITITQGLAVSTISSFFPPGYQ
Kind of test: BLI. Put shortly: as §1

Test [5] addresses T5, human FcRIIIA-V158 protein (MednaBio, E1035) (human, UniProt P08637 17-208).
T5 construct: Bought; also called FcγRIIIA(V); FcgRIIIA(V)
Description: BLI. An outline of the steps: as §1

The target in test [6] is T6, human FcRn protein (MednaBio, E1032) (human, UniProt P55899 24-297; P61769 21-119).
T6 construct: Bought; assays at pH 6
T6 sequence (P55899 24-297 limits assumed, form in doubt, chain 1 of 2): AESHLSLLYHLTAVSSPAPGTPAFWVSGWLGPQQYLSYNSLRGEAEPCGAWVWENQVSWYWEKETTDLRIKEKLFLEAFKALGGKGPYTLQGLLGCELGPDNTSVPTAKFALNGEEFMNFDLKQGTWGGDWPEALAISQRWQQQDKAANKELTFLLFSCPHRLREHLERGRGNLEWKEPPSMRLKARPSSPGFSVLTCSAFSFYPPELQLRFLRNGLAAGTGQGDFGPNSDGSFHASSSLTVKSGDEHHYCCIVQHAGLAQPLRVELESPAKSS
T6 sequence (P61769 21-119 limits assumed, form in doubt, chain 2 of 2): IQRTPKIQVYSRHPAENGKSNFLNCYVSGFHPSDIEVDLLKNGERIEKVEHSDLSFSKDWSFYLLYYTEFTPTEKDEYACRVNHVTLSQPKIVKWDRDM
Kind of test: BLI. An outline of the steps: as §1

Test [7] deals with T7, human FcRIIA protein (MednaBio, E1033) (human, UniProt P12318 34-218, limits assumed).
T7 construct: Bought; also called FcγRIIA
T7 sequence (looked up): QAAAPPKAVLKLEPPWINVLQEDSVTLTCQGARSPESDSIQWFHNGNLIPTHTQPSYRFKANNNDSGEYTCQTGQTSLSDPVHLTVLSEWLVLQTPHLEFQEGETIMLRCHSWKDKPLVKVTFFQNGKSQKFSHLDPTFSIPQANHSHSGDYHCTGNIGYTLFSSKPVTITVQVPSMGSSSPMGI
Description: BLI. An outline of the steps:
as §1

Test [8] concerns the target T8, human FcγRIIC expressed on CHO cells (human, UniProt P31995 43-323).
T8 construct: whole, on cells
T8 sequence (looked up): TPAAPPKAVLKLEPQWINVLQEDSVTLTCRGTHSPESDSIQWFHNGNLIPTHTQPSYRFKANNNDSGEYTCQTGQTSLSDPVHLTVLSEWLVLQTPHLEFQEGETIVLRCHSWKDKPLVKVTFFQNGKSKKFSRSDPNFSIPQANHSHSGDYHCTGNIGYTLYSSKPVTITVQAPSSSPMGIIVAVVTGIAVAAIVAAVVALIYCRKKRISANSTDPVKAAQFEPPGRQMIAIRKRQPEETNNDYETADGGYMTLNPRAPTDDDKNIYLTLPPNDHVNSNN
Kind of test: FACS, CHO cells expressing FcγRIIC. The protocol:
FIGS. 1A-1W are charts showing binding activity of various IgG variants as indicated to different types of Fcγ receptors expressed on CHO-K1 cells at the various concentrations as indicated. The concentrations of each IgG variant, from left to right, are 0 μg/ml, 0.3 μg/ml, 1 μg/ml, 3 μg/ml, and 10 μg/ml in FIGS. 1A-1C, 1E-J, 1L-1M, 1P-1R, and 1T-1V. For FIGS. 1D, 1K, 10, 1S, and 1w the bars, from left to right, correspond to the following concentrations of IgG variant: 0.3 μg/ml, 1 μg/ml, 3 μg/ml, and 10 μg/ml.
(§2) For FACS analysis of the IgG mutants' binding to different FcγRs, FcγR overexpressing CHO cells were harvested using trypsin-EDTA and were suspended in cold staining buffer (3% BSA in PBS). Test IgG mutants, which were diluted in staining buffer, were added into the cells. The mixture was incubated 4° C. for 2 hours, and then washed twice with cold staining buffer and re-suspended in PE-labeled anti-human IgG followed by incubation at 4° C. for 2 hours. The mixture was washed twice with staining buffer and re-suspended in 2% PFA in PBS for FACS.

Test [9] addresses T9, human FcγRI expressed on CHO cells (human, UniProt P12314 16-374).
T9 construct: whole, on cells
Kind of test: FACS, CHO cells expressing FcγRI. The protocol:
as §2

The target in test [10] is T6, human FcRn protein (MednaBio, E1032). Description: BLI. An outline of the steps: as §1
This is another data set of the same source.

The target in test [11] is T1, human FcRIIB/C protein (MednaBio, E1034). Description: BLI. The protocol: (§3) These IgG mutants were tested for binding to a panel of human Fc receptors (FcRs), including FcRn, using the Octet Red96 System (ForteBio, Model #Red96). Human FcR proteins were purchased commercially (FcRn, MednaBio, E1032; FcRI, MednaBio, E1031; FcRIIA, MednaBio, E1033; FcRIIB/C, MednaBio, E1034; FcRIIIA-F158, MednaBio, E1036; FcRIIIA-V158, MednaBio, E1035; FcRIIIB, MednaBio, E1037). All Fey receptor assays were performed at pH 7.2; all FcRn assays were performed at pH 6. The Fey receptors were loaded onto anti-penta-HIS1K (ForteBio, Cat #18-5122) biosensors at a concentration of 20 μg/mL. The loaded biosensors was then be dipped into an 8-point 1:3 dilution series of the test IgG molecules (including controls and the mutants described herein) in PBS with 0.1% BSA, 0.02% Tween-20 (pH 7.2) at a starting concentration of 300 nM. Kinetic analysis was performed using a 1:1 binding model and global fitting.
This is another data set of the same source.

Test [12] deals with T2, human FcRIIIB protein (MednaBio, E1037). Kind of test: BLI. The protocol: as §3
This is another data set of the same source.

For test [13], the target named is T3, human FcRI protein (MednaBio, E1031). Kind of test: BLI. The method, then: as §3
The source holds these as a separate data set.

The target of test [14] is T4, human FcRIIIA-F158 protein (MednaBio, …). Kind of test: BLI. The method, then: as §3
The source holds these as a separate data set.

Test [15] has as its target T5, human FcRIIIA-V158 protein (MednaBio, …). Description: BLI. The protocol: as §3
The source holds these as a separate data set.

Test [16] concerns the target T6, human FcRn protein (MednaBio, E1032). Kind of test: BLI. The method, then:
as §3
The source holds these as a separate data set.

The target of test [17] is T7, human FcRIIA protein (MednaBio, E1033). Kind of test: BLI. The protocol:
as §3
The source holds these as a separate data set.

Read-outs that look alike come from different tables or passages of the source.

T5 sequence (P08637 17-208 F176V): as the sequence (P08637 17-208 limits assumed) above, with F160V counted along it
T2 sequence (O75015 17-200 limits assumed): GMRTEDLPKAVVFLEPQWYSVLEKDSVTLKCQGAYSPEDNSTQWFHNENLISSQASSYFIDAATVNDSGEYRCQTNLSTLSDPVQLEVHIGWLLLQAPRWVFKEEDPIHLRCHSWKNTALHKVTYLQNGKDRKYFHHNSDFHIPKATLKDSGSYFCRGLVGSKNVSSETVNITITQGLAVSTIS
T9 sequence (P12314 16-374): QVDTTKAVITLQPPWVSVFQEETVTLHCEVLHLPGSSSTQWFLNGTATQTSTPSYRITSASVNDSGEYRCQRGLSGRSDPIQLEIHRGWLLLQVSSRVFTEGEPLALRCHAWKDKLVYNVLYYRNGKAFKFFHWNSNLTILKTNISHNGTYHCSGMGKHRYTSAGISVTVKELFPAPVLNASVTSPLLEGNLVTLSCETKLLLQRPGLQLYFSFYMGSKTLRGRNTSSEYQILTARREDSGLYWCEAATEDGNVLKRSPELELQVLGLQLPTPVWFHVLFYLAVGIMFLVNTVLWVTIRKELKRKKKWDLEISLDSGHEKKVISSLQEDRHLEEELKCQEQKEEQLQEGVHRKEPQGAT

B1: anti-CD137 IgG1 with Fc variant G1m9 (antibody)
heavy: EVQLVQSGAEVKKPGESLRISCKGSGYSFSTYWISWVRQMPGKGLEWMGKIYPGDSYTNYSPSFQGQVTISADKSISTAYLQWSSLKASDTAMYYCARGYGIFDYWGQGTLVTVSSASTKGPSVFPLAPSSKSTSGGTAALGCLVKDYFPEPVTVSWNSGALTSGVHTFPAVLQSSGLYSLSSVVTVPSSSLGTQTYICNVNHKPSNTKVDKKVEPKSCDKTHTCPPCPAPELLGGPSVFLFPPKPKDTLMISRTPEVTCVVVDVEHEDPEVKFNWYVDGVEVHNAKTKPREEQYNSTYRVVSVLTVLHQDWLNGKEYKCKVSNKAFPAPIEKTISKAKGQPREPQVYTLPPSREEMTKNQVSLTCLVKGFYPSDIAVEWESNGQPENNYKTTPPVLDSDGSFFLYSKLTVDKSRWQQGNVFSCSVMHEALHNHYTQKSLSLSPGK
light: SYELTQPPSVSVSPGQTASITCSGDNIGDQYAHWYQQKPGQSPVLVIYQDKNRPSGIPERFSGSNSGNTATLTISGTQAMDEADYYCATYTGFGSLAVFGGGTKLTVLGQPKAAPSVTLFPPSSEELQANKATLVCLISDFYPGAVTVAWKADSSPVKAGVETTTPSKQSNNKYAASSYLSLTPEQWKSHRSYSCQVTHEGSTVEKTVAPTECS
notes: copies: 2 + 2
Take B1: the Kd in [1] is 25 nM; in test [3], 3.1 nM; in test [4] it was 180 nM; in [5], 86 nM; in test [6] it was 19.1 nM; in [7], 680 nM. For the same molecule, the koff in [1] came out at 0.0051 s⁻¹; in [3] it was 0.0016 s⁻¹; in test [4], 0.091 s⁻¹; in [5], 0.1 s⁻¹; in test [6] it was 0.0116 s⁻¹; in test [7], 0.13 s⁻¹. Further, the kon in test [1] amounted to 200000 M⁻¹ s⁻¹; in [3], 510000 M⁻¹ s⁻¹; in [4], 520000 M⁻¹ s⁻¹; in test [5], 1.2e+06 M⁻¹ s⁻¹; in [6], 607000 M⁻¹ s⁻¹; in [7] it was 180000 M⁻¹ s⁻¹. Further, the binding result is “no binding (tested: 300 nM)” in [2] and “binds” in test [8].

B2: anti-CD137 IgG4 with Fc variant G4m18 (antibody)
heavy: EVQLVQSGAEVKKPGESLRISCKGSGYSFSTYWISWVRQMPGKGLEWMGKIYPGDSYTNYSPSFQGQVTISADKSISTAYLQWSSLKASDTAMYYCARGYGIFDYWGQGTLVTVSSASTKGPSVFPLAPCSRSTSESTAALGCLVKDYFPEPVTVSWNSGALTSGVHTFPAVLQSSGLYSLSSVVTVPSSSLGTKTYTCNVDHKPSNTKVDKRVESKYGPPCPPCPAPEFLSVFLFPPKPKDTLMISRTPEVTCVVVDVSQEDPEVQFNWYVDGVEVHNAKTKPREEQFNSTYRVVSVLTVLHQDWLNGKEYKCKVSNKGFPSSIEKTISKAKGQPREPQVYTLPPSQEEMTKNQVSLTCLVKGFYPSDIAVEWESNGQPENNYKTTPPVLDSDGSFFLYSRLTVDKSRWQEGNVFSCSVMHEALHNHYTQKSLSLSLGK
light: SYELTQPPSVSVSPGQTASITCSGDNIGDQYAHWYQQKPGQSPVLVIYQDKNRPSGIPERFSGSNSGNTATLTISGTQAMDEADYYCATYTGFGSLAVFGGGTKLTVLGQPKAAPSVTLFPPSSEELQANKATLVCLISDFYPGAVTVAWKADSSPVKAGVETTTPSKQSNNKYAASSYLSLTPEQWKSHRSYSCQVTHEGSTVEKTVAPTECS
notes: copies: 2 + 2
For B2, in test [9], the binding result is recorded as “binds”. In [10], this molecule displayed a Kd of 11 nM, a koff of 0.0068 s⁻¹ and an on-rate constant (kon) of 610000 M⁻¹ s⁻¹.

B3: anti-CD137 IgG2 with Fc variant G2m2 (antibody)
heavy: EVQLVQSGAEVKKPGESLRISCKGSGYSFSTYWISWVRQMPGKGLEWMGKIYPGDSYTNYSPSFQGQVTISADKSISTAYLQWSSLKASDTAMYYCARGYGIFDYWGQGTLVTVSSASTKGPSVFPLAPCSRSTSESTAALGCLVKDYFPEPVTVSWNSGALTSGVHTFPAVLQSSGLYSLSSVVTVPSSNFGTQTYTCNVDHKPSNTKVDKTVERKCCVECPPCPAPPFLGGPSVFLFPPKPKDTLMISRTPEVTCVVVDVSHEDPEVQFNWYVDGVEVHNAKTKPREEQFNSTFRVVSVLTVVHQDWLNGKEYKCKVSNKGLPAPIEKTISKTKGQPREPQVYTLPPSREEMTKNQVSLTCLVKGFYPSDIAVEWESNGQPENNYKTTPPMLDSDGSFFLYSKLTVDKSRWQQGNVFSCSVMHEALHNHYTQKSLSLSPGK
light: SYELTQPPSVSVSPGQTASITCSGDNIGDQYAHWYQQKPGQSPVLVIYQDKNRPSGIPERFSGSNSGNTATLTISGTQAMDEADYYCATYTGFGSLAVFGGGTKLTVLGQPKAAPSVTLFPPSSEELQANKATLVCLISDFYPGAVTVAWKADSSPVKAGVETTTPSKQSNNKYAASSYLSLTPEQWKSHRSYSCQVTHEGSTVEKTVAPTECS
notes: copies: 2 + 2
Regarding B3, the Kd worked out at 160 nM in test [11]; 2 nM in [13]; 250 nM in test [14]; 160 nM in test [15]; 10 nM in test [16]; 68 nM in [17]. For the same molecule, the koff in test [11] amounted to 0.099 s⁻¹; in test [13] it was 0.00091 s⁻¹; in [14] it was 0.07 s⁻¹; in [15], 0.033 s⁻¹; in test [16] it was 0.0091 s⁻¹; in test [17], 0.057 s⁻¹. Further, the kon is 620000 M⁻¹ s⁻¹ in [11]; 440000 M⁻¹ s⁻¹ in test [13]; 280000 M⁻¹ s⁻¹ in test [14]; 210000 M⁻¹ s⁻¹ in test [15]; 900000 M⁻¹ s⁻¹ in test [16]; 840000 M⁻¹ s⁻¹ in test [17]. Further, the binding result in test [12] is on record as “no binding (tested: 300 nM)”.
